Measured values: publication PMC3021135

Target: hAGT C145S (O6-alkylguanine-DNA alkyltransferase, inactive mutant) (human, UniProt P16455 1-207, C145S)
Experiment: EMSA

Chain of hAGT C145S (O6-alkylguanine-DNA alkyltransferase, inactive mutant) (P16455 whole entry C145S): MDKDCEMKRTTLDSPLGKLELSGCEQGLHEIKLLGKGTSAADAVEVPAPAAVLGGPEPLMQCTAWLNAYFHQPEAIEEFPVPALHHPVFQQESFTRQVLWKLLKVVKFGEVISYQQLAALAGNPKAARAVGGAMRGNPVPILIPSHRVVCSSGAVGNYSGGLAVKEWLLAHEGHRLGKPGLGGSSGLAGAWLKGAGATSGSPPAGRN

B1: Control (non-cross-linked duplex) (dsDNA)
DNA 1: CGATGTCATCG
DNA 2: CGATGACATCG
Work on B1 yielded a Kd of 8.36 ± 1.11 µM.
